What was measured:
PKC-θ (T538p) = molecular target: T1, PKC-θ (T538p) (Homo sapiens, UniProt Q04759); experiment: Nuclear localization of PKC-θ (Fn/c, immunofluorescence) in cells treated with peptide inhibitor; type: cell-based; details: MCF7 breast cancer cell line; FIG. 1D
T1 construct: endogenous in cells; host or cells: MCF7
From the text: (§1) FIG. 1 is a graphical, schematic and photographic representation showing that PKC-θ can be targeted for therapeutic intervention. A) Depicts the strength of binding of recombinant purified His6-PKC-θ to increasing concentrations of different subunits and subunit combinations (α2, α2β1, and β1) of the importin α/β heterodimer nuclear transport receptor using an AlphaScreen® binding assay as described in Wagstaff et al. (2011. Journal of Biomolecular Screening 16 (2):192-200). B-C) Depicts protein structure of PKC-θ indicating binding locations for the PKC-θ peptide inhibitor, PKCθi (RKEIDPPFRPKVK), including the nuclear localization sequence (NLS) of PKC-θ. D) The specificity of PKCθi was examined on cells treated with this peptide inhibitor. Cells were screened with primary antibodies to PKC-θ (T538p), PKC-β2, PKC-β1, PKC-α, PKC-ε and PKC-γ. The nuclear to cytoplasmic fluorescence ratio (Fn/c) using the equation: Fn/c=(Fn−Fb)/(Fc−Fb), where Fn is nuclear fluorescence, Fc is cytoplasmic fluorescence, and Fb is background fluorescence was used to determine the impact on nuclear translocation/localization. […] EC^50 of inhibitors calculated using GraphPad PRISM software. F) The PKC-θ kinase activity was measured using the PKC kinase activity kit from ENZO life sciences and recombinant PKC-θ; C27 is an inhibitor of PKC-θ kinase activity, which is disclosed in Jimenez et al. (2013. […]

[1] = system: CD8^+ T-cells isolated from melanoma patient's bloods; experiment: Immunofluorescence of nuclear PKC-θ and ZEB1 in patient CD8+ T-cells; type: cell-based, human; details: all patient samples; vehicle or PMA/CI; inhibitor 8 μm; FIG. 3
Procedure: FIG. 3 is a photographic representation depicting a PKC-θ resistance signature in CD8^+ T-cells. A-B) CD8s were isolated from melanoma patient liquid biopsies (CR=complete response, SD=Stable Disease, PD=progression of disease) and were stimulated with PMA/CI and pre-clinically screened with either vehicle control or PKCθi nuclear peptide inhibitor. Samples were fixed and immunofluorescence microscopy was performed on these cells with primary antibodies for ZEB1, PKC-θ, and CD8. Representative images for each dataset are shown. Graph represents the TNFI for PKC-Theta and TNFI for ZEB1 measured using ImageJ to select the nucleus minus background (n=>20 cells/sample). Plot profiles for each cohort for ZEB1 and PKC-θ are also depicted (RED=ZEB1, Green=PKC-θ) with the PCC indicated. Graphs depicting the % inhibition or induction based on protein expression where also plotted for each protein target relative to untreated sample. C-D) CD8s were isolated from melanoma patient liquid biopsies (CR=complete response, PR=partial response, PD=progression of disease) and were stimulated with PMA/CI and pre-clinically screened with either vehicle control or our PKCθi nuclear peptide inhibitor. […] Graph represents the TNFI for TNF-α and TNFI for IFN-γ measured using ImageJ to select the nucleus minus background (n=>20 cells/sample). […]

PKC-γ = molecular target: T2, PKC-γ (Homo sapiens, UniProt P05129); experiment: Nuclear localization of PKC-γ (Fn/c, immunofluorescence), specificity; type: cell-based; details: MCF7 breast cancer cell line; FIG. 1D
T2 construct: endogenous in cells; host or cells: MCF7
From the text: as §1

T1 sequence (Q04759 whole entry): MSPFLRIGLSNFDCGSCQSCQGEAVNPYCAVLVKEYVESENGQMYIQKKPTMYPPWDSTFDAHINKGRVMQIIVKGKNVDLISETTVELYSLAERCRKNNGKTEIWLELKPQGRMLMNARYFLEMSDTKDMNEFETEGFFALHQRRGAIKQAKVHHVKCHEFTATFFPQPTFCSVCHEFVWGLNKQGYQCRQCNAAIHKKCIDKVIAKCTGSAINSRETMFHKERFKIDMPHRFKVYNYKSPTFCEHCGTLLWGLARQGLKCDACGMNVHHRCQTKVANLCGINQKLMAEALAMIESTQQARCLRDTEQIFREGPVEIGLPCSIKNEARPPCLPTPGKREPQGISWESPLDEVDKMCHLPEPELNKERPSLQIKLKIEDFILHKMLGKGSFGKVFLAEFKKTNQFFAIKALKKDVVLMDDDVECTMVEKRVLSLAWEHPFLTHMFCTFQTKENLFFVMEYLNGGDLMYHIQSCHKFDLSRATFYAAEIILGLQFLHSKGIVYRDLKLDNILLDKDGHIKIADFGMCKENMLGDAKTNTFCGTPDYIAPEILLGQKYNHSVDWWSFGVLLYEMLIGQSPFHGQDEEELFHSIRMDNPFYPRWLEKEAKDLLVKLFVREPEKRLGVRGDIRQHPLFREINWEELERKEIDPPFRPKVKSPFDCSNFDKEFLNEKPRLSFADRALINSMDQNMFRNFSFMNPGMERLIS

## RKEIDPPFRPKVK [PKCθi]
PKC-θ (T538p)
  nuclear localization of PKC-θ: markedly inhibit
[1]
  expression of ZEB1: strikingly abrogated
  expression of nuclear PKC-θ: strikingly abrogated
PKC-γ
  nuclear localization of PKC-γ: no effect

Source: patent publication US20200282010A1, “IMMUNOGENIC COMPOSITIONS AND USES THEREFOR” (Epiaxis Therapeutics Pty Ltd, priority 2017, published 2020)
